From patent US20230381279A1, “PHARMACEUTICAL COMPOSITION FOR PREVENTING OR TREATING LUPUS-RELATED DISEASES COMPRISING GIP DERIVATIVE OR LONG-ACTING CONJUGATE THEREOF” (HANMI PHARM. CO., LTD., priority 2020, published 2023)
Non-standard residues stand in square brackets, D forms with d. No end group written: not given here. Aib = CC(C)(N)C(=O)O

T1: human GIP receptor (Homo sapiens, UniProt P48546)
T1 construct: expressed in transfected cells; host or cells: CHO (Chinese hamster ovary) cells
T1 sequence (P48546 22-466): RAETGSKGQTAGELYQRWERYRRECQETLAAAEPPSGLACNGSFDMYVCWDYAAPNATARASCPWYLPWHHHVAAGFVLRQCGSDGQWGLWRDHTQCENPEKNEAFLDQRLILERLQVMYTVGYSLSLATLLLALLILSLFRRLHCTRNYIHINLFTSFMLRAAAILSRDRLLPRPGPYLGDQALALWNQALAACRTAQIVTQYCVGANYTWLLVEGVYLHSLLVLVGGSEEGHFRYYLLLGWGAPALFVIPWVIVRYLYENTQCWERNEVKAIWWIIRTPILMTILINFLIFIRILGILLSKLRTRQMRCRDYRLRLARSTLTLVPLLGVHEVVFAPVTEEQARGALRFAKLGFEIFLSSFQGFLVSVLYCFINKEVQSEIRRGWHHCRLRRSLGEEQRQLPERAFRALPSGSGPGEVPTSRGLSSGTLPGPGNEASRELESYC

T2: human GIP receptor (human, UniProt P48546 22-466)
T2 sequence (looked up): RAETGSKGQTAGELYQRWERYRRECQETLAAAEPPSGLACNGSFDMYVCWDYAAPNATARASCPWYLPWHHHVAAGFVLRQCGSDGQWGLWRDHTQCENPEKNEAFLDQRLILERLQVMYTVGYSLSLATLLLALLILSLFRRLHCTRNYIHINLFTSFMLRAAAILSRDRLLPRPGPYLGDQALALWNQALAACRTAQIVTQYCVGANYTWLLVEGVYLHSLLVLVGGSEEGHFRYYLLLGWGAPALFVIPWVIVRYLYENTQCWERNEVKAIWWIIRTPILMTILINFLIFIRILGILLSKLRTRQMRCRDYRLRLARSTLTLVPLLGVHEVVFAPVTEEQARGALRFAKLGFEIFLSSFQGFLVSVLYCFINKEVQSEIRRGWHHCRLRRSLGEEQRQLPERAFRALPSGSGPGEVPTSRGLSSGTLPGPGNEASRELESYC


Tests used:
[1] = target: T1, human GIP receptor; assay: In vitro activity of long-acting GIP conjugate: cAMP accumulation (LANCE cAMP kit) in CHO cells expressing human GIP receptor; assay type: cell-based; conditions: relative potency from cAMP EC50 vs human GIP, PEG-immunoglobulin Fc conjugates
Protocol: To measure the activity of the long-acting GIP conjugates prepared in Example 3, a method of measuring cell activity in vitro using a cell line transformed with the GIP receptor was used in the same manner as in Example 2.
In detail, to measure the activity of the long-acting GIP derivatives in the human GIP receptors, human GIP was serially diluted from 16 nM to 0.000015 nM by 4 folds, and the long-acting GIP derivatives prepared in Example 1 were each serially diluted from 50 nM to 0.000048 nM by 4 folds. The culture medium was removed from the cultured CHO cells where the human GIP receptors were expressed, 5 μl of each of the serially diluted materials was added to the cells, and then, 5 μl of buffer containing cAMP antibody was added thereto, followed by incubation at room temperature for 15 minutes. Next, the cells were lysed by adding 10 μl of detection mix containing cell lysis buffer, and then allowed for a reaction at room temperature for 90 minutes. The cell lysate obtained by the completion of the reaction was applied to the LANCE cAMP kit (PerkinElmer, USA) to calculate the EC50 value through the accumulated cAMP to be compared with each other.

[2] = target: T2, human GIP receptor; assay: cell-based or functional assay

Molecule	In vitro activity of long-acting GIP derivative compared to human native GIP in human GIP receptor (%) [1]	In vitro activity of GIP derivative compared to human native GIP in human GIP receptor (%) (cAMP EC50, CHO cells expressing human GIP receptor) [2]
YAibEGT FISDYSIALEKQAQQDFVNWLLAGGPSSGAPPPSC (Y[Aib]EGTFISDYSIALEKQAQQDFVNWLLAGGPSSGAPPPSC) [SEQ ID NO: 17]	153.2%	
YAibEGT FISDYSIAMDAIAQQDFVNWLLAQKGKKNDWKHNITQC (Y[Aib]EGTFISDYSIAMDAIAQQDFVNWLLAQKGKKNDWKHNITQC) [SEQ ID NO: 11]	84.8%	
YAibEGT FISDY SIAibLD KQAAAib EFVNW LLAibGG PSSGA PPPSC (Y[Aib]EGTFISDYSI[Aib]LDKQAA[Aib]EFVNWLL[Aib]GGPSSGAPPPSC) [SEQ ID NO: 21]	148.5%	
YAibEGT FISDY SIAibLD KQAAAib EFVNW LLAibGH PSSGA PPPSC (Y[Aib]EGTFISDYSI[Aib]LDKQAA[Aib]EFVNWLL[Aib]GHPSSGAPPPSC) [SEQ ID NO: 24]	123.3%	
Y[Aib]EGTFISDYSIYMDAIAQQDFVNWLLAGGPSSGAPPPSC (not fully specified) [GIP derivative of SEQ ID NO: 4]		10.5%
Y[Aib]EGTFISDYSIYLDAQAA[Aib]DFVNWLLAGGPSSGAPPPSC (not fully specified) [GIP derivative of SEQ ID NO: 8]		1.9%
Y[Aib]EGTFISDYSIYLDKQAA[Aib]EFVNWLL[Aib]GHPSSGAPPPSC (not fully specified) [GIP derivative of SEQ ID NO: 19]		66.7%
Y[Aib]EGTFISDYSIAMDGIAQQDFVNWLLAQKPSSGAPPPSC (not fully specified) [GIP derivative of SEQ ID NO: 16]		11.3%
Y[Aib]EGTFISDYSI[Aib]LDKQAA[Aib]EFVNWLL[Aib]GHPSSGAPPPSC (not fully specified) [GIP derivative of SEQ ID NO: 24]		183%
Y[Aib]EGTFISDYSIAMDKIAQQDFVNWLLAQKPSSGAPPPSC (not fully specified) [GIP derivative of SEQ ID NO: 15]		31.1%
Y[Aib]EGTFISDYSIYLDAQAAKDFVNWLLAGGPSSGAPPPSC (not fully specified) [GIP derivative of SEQ ID NO: 9]		2%
Y[Aib]EGTFISDYSIYLDKQAA[Aib]EFVNWLL[Aib]GGPSSGAPPPSC (not fully specified) [GIP derivative of SEQ ID NO: 20]		75.3%
Y[Aib]EGTFISDYSIAMDAIAQQDFVNWLLAQKGKKNDWKHNITQC (not fully specified) [GIP derivative of SEQ ID NO: 11]		122%
Y[Aib]EGTFISDYSIYLDKQAA[Aib]EFVNWLLAQKGKKNDWKHNITQC (not fully specified) [GIP derivative of SEQ ID NO: 12]		49.2%
Y[Aib]EGTFISDYSIALEKQAQQDFVNWLLAGGPSSGAPPPSC (not fully specified) [GIP derivative of SEQ ID NO: 17]		111%
Y[Aib]EGTFISDYSIYLDKQAA[Aib]EFVNWLLAQKC (not fully specified) [GIP derivative of SEQ ID NO: 13]		31.1%
Y[Aib]EGTFISDYSIYLDAQAAKEFIAWLLAGGPSSGAPPPSC (not fully specified) [GIP derivative of SEQ ID NO: 10]		13.9%
Y[Aib]EGTFISDYSI[Aib]MDAIAQQDFVNWLLAGGPSSGAPPPSC (not fully specified) [GIP derivative of SEQ ID NO: 3]		15.6%
Y[Aib]EGTFISDYSIYLDKQAA[Aib]EFVNWLLAGHPSSGAPPPSC (not fully specified) [GIP derivative of SEQ ID NO: 22]		71.6%
Y[Aib]EGTFISDYSI[Aib]LDKQAA[Aib]EFVNWLL[Aib]GGPSSGAPPPSC (not fully specified) [GIP derivative of SEQ ID NO: 21]		123%
Y[Aib]EGTFISDYSIYLDAQAA[Aib]EFVNWLLAQKC (not fully specified) [GIP derivative of SEQ ID NO: 14]		17.4%
Y[Aib]EGTFISDYSIAMDAIAQQDFVNWLLAQKPSSGAPPPSC (not fully specified) [GIP derivative of SEQ ID NO: 1]		49.3%
Y[Aib]EGTFISDYSIQMDAIAQQDFVNWLLAGGPSSGAPPPSC (not fully specified) [GIP derivative of SEQ ID NO: 5]		12.1%
Y[Aib]EGTFISDYSIYLDKQAQKEFVNWLL[Aib]GGPSSGAPPPSC (not fully specified) [GIP derivative of SEQ ID NO: 23]		87.6%
Y[Aib]EGTFISDYSIYLDKQAAQEFVNWLLAQKPSSGAPPPSC (not fully specified) [GIP derivative of SEQ ID NO: 18]		13.6%
Y[Aib]EGTFISDYSIYLDAQAQQDFVNWLLAGGPSSGAPPPSC (not fully specified) [GIP derivative of SEQ ID NO: 7]		19.6%
Y[Aib]EGTFISDYSIYLDKQAA[Aib]EFVQWLIAGHPSSGAPPPC (not fully specified) [GIP derivative of SEQ ID NO: 26]		66.7%
Y[Aib]EGTFISDYSIAMDAIAQQDFVNWLLAGGPSSGAPPPSC (not fully specified) [GIP derivative of SEQ ID NO: 2]		13.9%
Y[Aib]EGTFISDYSIYLDKQAA[Aib]EFVQWLI[Aib]GGPSSGAPPPSC (not fully specified) [GIP derivative of SEQ ID NO: 25]		78.3%
Y[Aib]EGTFISDYSIYLDAIAQQDFVNWLLAGGPSSGAPPPSC (not fully specified) [GIP derivative of SEQ ID NO: 6]		17.4%
